Measured values reported in US20190300590A1 (PROTAGONIST THERAPEUTICS, published 2019).
Bridges are numbered along the chain shown (N, C = ends). [ ]: non-standard residue; d: D form. 2Nal = N[C@@H](Cc1ccc2ccccc2c1)C(=O)O; AEF = NCCOc1ccc(C[C@H](N)C(=O)O)cc1; Pen = CC(C)(S)[C@H](N)C(=O)O; Aib = CC(C)(N)C(=O)O

Columns and labels:
IL-23R on DB cells = target: T1, IL-23R on DB cells (human, UniProt Q5VWK5 24-629); experiment: cell-based or functional assay
T1 sequence (looked up): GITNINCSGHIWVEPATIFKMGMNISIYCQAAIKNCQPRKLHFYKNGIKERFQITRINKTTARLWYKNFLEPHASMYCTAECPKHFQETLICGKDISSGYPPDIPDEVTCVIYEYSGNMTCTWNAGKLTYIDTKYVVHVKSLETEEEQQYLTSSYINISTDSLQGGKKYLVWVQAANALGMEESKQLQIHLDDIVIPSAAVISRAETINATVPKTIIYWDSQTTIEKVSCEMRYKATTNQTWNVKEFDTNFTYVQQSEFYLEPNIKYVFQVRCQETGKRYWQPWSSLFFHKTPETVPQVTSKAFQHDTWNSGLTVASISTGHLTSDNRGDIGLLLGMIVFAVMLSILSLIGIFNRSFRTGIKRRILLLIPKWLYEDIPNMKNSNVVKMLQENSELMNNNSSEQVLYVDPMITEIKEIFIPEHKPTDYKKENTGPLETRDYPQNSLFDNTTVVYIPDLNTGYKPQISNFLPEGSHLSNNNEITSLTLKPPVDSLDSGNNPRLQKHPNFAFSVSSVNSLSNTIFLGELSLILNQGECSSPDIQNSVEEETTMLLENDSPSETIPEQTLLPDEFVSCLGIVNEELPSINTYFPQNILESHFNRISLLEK

IL23R_huFC = target: T2, IL23R_huFC (human, UniProt Q5VWK5 24-353); experiment: IL23-IL23R competitive ELISA
T2 sequence (looked up): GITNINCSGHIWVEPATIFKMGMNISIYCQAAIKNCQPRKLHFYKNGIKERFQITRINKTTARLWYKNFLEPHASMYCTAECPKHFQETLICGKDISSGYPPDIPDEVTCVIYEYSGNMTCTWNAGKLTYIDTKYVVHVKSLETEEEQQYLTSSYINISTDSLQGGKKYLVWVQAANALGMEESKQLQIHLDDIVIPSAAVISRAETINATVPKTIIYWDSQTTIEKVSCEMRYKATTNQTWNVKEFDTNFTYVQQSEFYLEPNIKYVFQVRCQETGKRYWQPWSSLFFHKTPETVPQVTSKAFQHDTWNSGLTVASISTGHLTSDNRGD

Binder | pStat3 HTRF IC50 (IL-23R on DB cells) [nM] | IC50 (IL23R_huFC) [nM]
Ac-[dF][Pen]QTWQ[Pen][AEF][2Nal][Aib]K(Ac)NN-NH2 (disulfide 2-7; SMILES CC(=O)NCCCC[C@H](NC(=O)C(C)(C)NC(=O)[C@H](Cc1ccc2ccccc2c1)NC(=O)[C@H](Cc1ccc(OCCN)cc1)NC(=O)[C@H]1NC(=O)[C@H](CCC(N)=O)NC(=O)[C@H](Cc2c[nH]c3ccccc23)NC(=O)[C@H]([C@@H](C)O)NC(=O)[C@H](CCC(N)=O)NC(=O)[C@@H](NC(=O)[C@@H](Cc2ccccc2)NC(C)=O)C(C)(C)SSC1(C)C)C(=O)N[C@@H](CC(N)=O)C(=O)N[C@@H](CC(N)=O)C(N)=O) [Ac-(D)Phe-[Pen]-QTWQ-[Pen]-[Phe[4-(2-aminoethoxy)]-[2-Nal]-[Aib]-[Lys(Ac)]-NN-NH2] | < 10 | –
Ac-[Pen]TTWQ[Pen][AEF][2Nal][Aib]K(Ac)NN-NH2 (disulfide 1-6 (inferred)) [Ac-[Pen]-TTWQ-[Pen]-[Phe[4-(2-aminoethoxy)]-[2-Nal]-[Aib]-[Lys(Ac)]-NN-NH2] | < 10 | –
H-CTTWKCYWHQYG-NH2 (disulfide 1-6 (inferred)) [Hy-CTTWKCYWHQYG-NH2] | – | 500 to 1000
XNTWQXFXXKNQ (Ac; Pen-Pen disulfide; Phe(4-OMe); 2-Nal; Aib; Lys(Ac); NH2) [Ac-[Pen]-NTWQ-[Pen]-[Phe(4-OMe)]-[2-Nal]-[Aib]-[Lys(Ac)]-NQ-NH2] | < 10 | –
XNTWQXFXXKNA (Ac; Pen-Pen disulfide; Phe[4-(2-aminoethoxy)]; 2-Nal; Aib; Lys(Ac); NH2) [Ac-[Pen]-NTWQ-[Pen]-[Phe[4-(2-aminoethoxy)]-[2-Nal]-[Aib]-[Lys(Ac)]-NA-NH2] | < 10 | –
H-CPNWECYWHRFG-NH2 (disulfide 1-6 (inferred)) [Hy-CPNWECYWHRFG-NH2] | – | 500 to 1000
H-CSNWECYWHHYG-NH2 (disulfide 1-6 (inferred)) [Hy-CSNWECYWHHYG-NH2] | – | 500 to 1000
XNTWQXFXXKNN (Ac; Pen-Pen disulfide; Phe(4-OMe); 2-Nal; Aib; Lys(Ac); NH2) [Ac-[Pen]-NTWQ-[Pen]-[Phe(4-OMe)]-[2-Nal]-[Aib]-[Lys(Ac)]-NN-NH2] | < 10 | –
XNTWQXFXLKNA (Ac; Pen-Pen disulfide; Phe[4-(2-aminoethoxy)]; 2-Nal; hLeu; Lys(Ac); βAla; NH2) [Ac-[Pen]-NTWQ-[Pen]-[Phe[4-(2-aminoethoxy)]-[2-Nal]-[hLeu]-[Lys(Ac)]-N-[βAla]-NH2] | < 10 | –
Ac-R[Pen]QTWQ[Pen][AEF][2Nal][Aib]K(Ac)NN-NH2 (disulfide 2-7; SMILES CC(=O)NCCCC[C@H](NC(=O)C(C)(C)NC(=O)[C@H](Cc1ccc2ccccc2c1)NC(=O)[C@H](Cc1ccc(OCCN)cc1)NC(=O)[C@H]1NC(=O)[C@H](CCC(N)=O)NC(=O)[C@H](Cc2c[nH]c3ccccc23)NC(=O)[C@H]([C@@H](C)O)NC(=O)[C@H](CCC(N)=O)NC(=O)[C@@H](NC(=O)[C@H](CCCNC(=N)N)NC(C)=O)C(C)(C)SSC1(C)C)C(=O)N[C@@H](CC(N)=O)C(=O)N[C@@H](CC(N)=O)C(N)=O) [Ac-R-[Pen]-QTWQ-[Pen]-[Phe[4-(2-aminoethoxy)]-[2-Nal]-[Aib]-[Lys(Ac)]-NN-NH2] | < 10 | –
XNTWQXFXLENA (Ac; Pen-Pen disulfide; Phe[4-(2-aminoethoxy)]; 2-Nal; hLeu; NH2) [Ac-[Pen]-NTWQ-[Pen]-[Phe[4-(2-aminoethoxy)]-[2-Nal]-[hLeu]-ENA-NH2] | < 10 | –
Ac-[dR][Pen]QTWQ[Pen][AEF][2Nal][Aib]K(Ac)NN-NH2 (disulfide 2-7; SMILES CC(=O)NCCCC[C@H](NC(=O)C(C)(C)NC(=O)[C@H](Cc1ccc2ccccc2c1)NC(=O)[C@H](Cc1ccc(OCCN)cc1)NC(=O)[C@H]1NC(=O)[C@H](CCC(N)=O)NC(=O)[C@H](Cc2c[nH]c3ccccc23)NC(=O)[C@H]([C@@H](C)O)NC(=O)[C@H](CCC(N)=O)NC(=O)[C@@H](NC(=O)[C@@H](CCCNC(=N)N)NC(C)=O)C(C)(C)SSC1(C)C)C(=O)N[C@@H](CC(N)=O)C(=O)N[C@@H](CC(N)=O)C(N)=O) [Ac-(D)Arg-[Pen]-QTWQ-[Pen]-[Phe[4-(2-aminoethoxy)]-[2-Nal]-[Aib]-[Lys(Ac)]-NN-NH2] | < 10 | –
XNTWQXFXXENN (Ac; Pen-Pen disulfide; Phe(4-OMe); 2-Nal; Aib; NH2) [Ac-[Pen]-NTWQ-[Pen]-[Phe(4-OMe)]-[2-Nal]-[Aib]-ENN-NH2] | < 10 | –
H-CSDWVCYWHVYG-NH2 (disulfide 1-6 (inferred)) [Hy-CSDWVCYWHVYG-NH2] | – | 500 to 1000
Ac-E[Pen]QTWQ[Pen][AEF][2Nal][Aib]K(Ac)NN-NH2 (disulfide 2-7; SMILES CC(=O)NCCCC[C@H](NC(=O)C(C)(C)NC(=O)[C@H](Cc1ccc2ccccc2c1)NC(=O)[C@H](Cc1ccc(OCCN)cc1)NC(=O)[C@H]1NC(=O)[C@H](CCC(N)=O)NC(=O)[C@H](Cc2c[nH]c3ccccc23)NC(=O)[C@H]([C@@H](C)O)NC(=O)[C@H](CCC(N)=O)NC(=O)[C@@H](NC(=O)[C@H](CCC(=O)O)NC(C)=O)C(C)(C)SSC1(C)C)C(=O)N[C@@H](CC(N)=O)C(=O)N[C@@H](CC(N)=O)C(N)=O) [Ac-E-[Pen]-QTWQ-[Pen]-[Phe[4-(2-aminoethoxy)]-[2-Nal]-[Aib]-[Lys(Ac)]-NN-NH2] | < 10 | –
Ac-F[Pen]QTWQ[Pen][AEF][2Nal][Aib]K(Ac)NN-NH2 (disulfide 2-7; SMILES CC(=O)NCCCC[C@H](NC(=O)C(C)(C)NC(=O)[C@H](Cc1ccc2ccccc2c1)NC(=O)[C@H](Cc1ccc(OCCN)cc1)NC(=O)[C@H]1NC(=O)[C@H](CCC(N)=O)NC(=O)[C@H](Cc2c[nH]c3ccccc23)NC(=O)[C@H]([C@@H](C)O)NC(=O)[C@H](CCC(N)=O)NC(=O)[C@@H](NC(=O)[C@H](Cc2ccccc2)NC(C)=O)C(C)(C)SSC1(C)C)C(=O)N[C@@H](CC(N)=O)C(=O)N[C@@H](CC(N)=O)C(N)=O) [Ac-Phe-[Pen]-QTWQ-[Pen]-[Phe[4-(2-aminoethoxy)]-[2-Nal]-[Aib]-[Lys(Ac)]-NN-NH2] | < 10 | –
